Target: Aβ1-40 peptide (monomeric start material of the nucleation assay)
Experiment: cell-based or functional assay

Nucleation assay Δ lag at 1.25 µM compound (ratio of lag time to control)	Nucleation assay Δ lag at 2.5 µM compound (ratio of lag time to control)	Nucleation assay Δ lag at 5 µM compound (ratio of lag time to control)	Nucleation assay Δ lag at 0.6 µM compound (row marked #: measured at 2.5, 1.25 and 0.6 µM) (ratio of lag time to control)	Nucleation assay Δ lag at 1.25 µM compound (row marked #: measured at 2.5, 1.25 and 0.6 µM) (ratio of lag time to control)	Nucleation assay Δ lag at 2.5 µM compound (row marked #: measured at 2.5, 1.25 and 0.6 µM) (ratio of lag time to control)	Substance
3	> 5	> 5	–	–	–	PPI-969: TFA • N-ethyl-(Gaffvl)-NH2 (peptide)
–	–	–	2	> 3	2	PPI-1013: TFA • H-(Glvffl)-NH2 (peptide)

From US20030236197A1
